This note sets out measurements from IntAct's records for PubMed 10524631.

To fix the notation:
B1: Phytochrome A (Arabidopsis thaliana (Mouse-ear cress)), P14712 (parent)
chain: MSGSRPTQSSEGSRRSRHSARIIAQTTVDAKLHADFEESGSSFDYSTSVRVTGPVVENQPPRSDKVTTTYLHHIQKGKLIQPFGCLLALDEKTFKVIAYSENASELLTMASHAVPSVGEHPVLGIGTDIRSLFTAPSASALQKALGFGDVSLLNPILVHCRTSAKPFYAIIHRVTGSIIIDFEPVKPYEVPMTAAGALQSYKLAAKAITRLQSLPSGSMERLCDTMVQEVFELTGYDRVMAYKFHEDDHGEVVSEVTKPGLEPYLGLHYPATDIPQAARFLFMKNKVRMIVDCNAKHARVLQDEKLSFDLTLCGSTLRAPHSCHLQYMANMDSIASLVMAVVVNEEDGEGDAPDATTQPQKRKRLWGLVVCHNTTPRFVPFPLRYACEFLAQVFAIHVNKEVELDNQMVEKNILRTQTLLCDMLMRDAPLGIVSQSPNIMDLVKCDGAALLYKDKIWKLGTTPSEFHLQEIASWLCEYHMDSTGLSTDSLHDAGFPRALSLGDSVCGMAAVRISSKDMIFWFRSHTAGEVRWGGAKHDPDDRDDARRMHPRSSFKAFLEVVKTRSLPWKDYEMDAIHSLQLILRNAFKDSETTDVNTKVIYSKLNDLKIDGIQELEAVTSEMVRLIETATVPILAVDSDGLVNGWNTKIAELTGLSVDEAIGKHFLTLVEDSSVEIVKRMLENALEGTEEQNVQFEIKTHLSRADAGPISLVVNACASRDLHENVVGVCFVAHDLTGQKTVMDKFTRIEGDYKAIIQNPNPLIPPIFGTDEFGWCTEWNPAMSKLTGLKREEVIDKMLLGEVFGTQKSCCRLKNQEAFVNLGIVLNNAVTSQDPEKVSFAFFTRGGKYVECLLCVSKKLDREGVVTGVFCFLQLASHELQQALHVQRLAERTAVKRLKALAYIKRQIRNPLSGIMFTRKMIEGTELGPEQRRILQTSALCQKQLSKILDDSDLESIIEGCLDLEMKEFTLNEVLTASTSQVMMKSNGKSVRITNETGEEVMSDTLYGDSIRLQQVLADFMLMAVNFTPSGGQLTVSASLRKDQLGRSVHLANLEIRLTHTGAGIPEFLLNQMFGTEEDVSEEGLSLMVSRKLVKLMNGDVQYLRQAGKSSFIITAELAAANK
partner: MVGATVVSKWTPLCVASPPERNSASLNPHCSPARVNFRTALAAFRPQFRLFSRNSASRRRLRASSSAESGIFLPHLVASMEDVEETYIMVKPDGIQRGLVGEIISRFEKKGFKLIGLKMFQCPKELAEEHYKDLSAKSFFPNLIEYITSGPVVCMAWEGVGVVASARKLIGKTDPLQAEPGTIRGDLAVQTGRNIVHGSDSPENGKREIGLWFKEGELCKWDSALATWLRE

In the assay the parent is B1. To be noted: with ndk2_arath NDPK2, O64903.
For G750E, the “effect of a mutation on the interaction” value is on record as “decreasing interaction strength”. Regarding G727E, the “effect of a mutation on the interaction” value is listed as “decreasing interaction”.
